# Measured values from patent US20110027281A1 (Ablynx, published 2011).
# Substitutions are numbered along the chain they refer to. Numbers in names are those of the source.
# T1: mouse TNF-alpha (mouse, UniProt P06804 80-235)
# T1 sequence (looked up): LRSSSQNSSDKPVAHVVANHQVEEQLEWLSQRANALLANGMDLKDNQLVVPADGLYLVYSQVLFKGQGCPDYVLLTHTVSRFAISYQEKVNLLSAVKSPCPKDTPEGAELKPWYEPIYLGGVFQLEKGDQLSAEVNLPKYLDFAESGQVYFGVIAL
# B1: TRI 3E (VHH)
# chain: QVQLQESGGGLVQPGGSLRLSCAASGRTFSDHSGYTYTIGWFRQAPGKEREFVARIYWSSGNTYYADSVKGRFAISRDIAKNTVDLTMNNLEPEDTAVYYCAARDGIPTSRSVESYNYWGQGTQVTVSSEPKTPKPQPAAAQVQLQESGGGLVQPGGSLRLSCAASGRTFSDHSGYTYTIGWFRQAPGKEREFVARIYWSSGNTYYADSVKGRFAISRDIAKNTVDLTMNNLEPEDTAVYYCAARDGIPTSRSVESYNYWGQGTQVTVSSEPKTPKPQPAAAQVQLQESGGGLVQPGGSLRLSCAASGRTFSDHSGYTYTIGWFRQAPGKEREFVARIYWSSGNTYYADSVKGRFAISRDIAKNTVDLTMNNLEPEDTAVYYCAARDGIPTSRSVESYNYWGQGTQVTVSS
# B2: BIV 3E (VHH)
# chain: QVQLQDSGGGLVQAGGSLRLSCAASGGTFSSIIMAWFRQAPGKEREFVGAVSWSGGTTVYADSVLGRFEISRDSARKSVYLQMNSLKPEDTAVYYCAARPYQKYNWASASYNVWGQGTQVTVSSEPKTPKPQPAAAQVQLQDSGGGLVQAGGSLRLSCAASGGTFSSIIMAWFRQAPGKEREFVGAVSWSGGTTVYADSVLGRFEISRDSARKSVYLQMNSLKPEDTAVYYCAARPYQKYNWASASYNVWGQGTQVTVSS
# B3: BIV#m3F (VHH)
# chain: B2 chain
# B4: TETRA 3E (VHH)
# chain: QVQLQESGGGLVQPGGSLRLSCAASGRTFSDHSGYTYTIGWFRQAPGKEREFVARIYWSSGNTYYADSVKGRFAISRDIAKNTVDLTMNNLEPEDTAVYYCAARDGIPTSRSVESYNYWGQGTQVTVSSEPKTPKPQPAAAQVQLQESGGGLVQPGGSLRLSCAASGRTFSDHSGYTYTIGWFRQAPGKEREFVARIYWSSGNTYYADSVKGRFAISRDIAKNTVDLTMNNLEPEDTAVYYCAARDGIPTSRSVESYNYWGQGTQVTVSSEPKTPKPQPAAAQVQLQESGGGLVQPGGSLRLSCAASGRTFSDHSGYTYTIGWFRQAPGKEREFVARIYWSSGNTYYADSVKGRFAISRDIAKNTVDLTMNNLEPEDTAVYYCAARDGIPTSRSVESYNYWGQGTQVTVSSEPKTPKPQPAAAQVQLQESGGGLVQPGGSLRLSCAASGRTFSDHSGYTYTIGWFRQAPGKEREFVARIYWSSGNTYYADSVKGRFAISRDIAKNTVDLTMNNLEPEDTAVYYCAARDGIPTSRSVESYNYWGQGTQVTVSS
# B5: VHH#m4B (VHH)
# VHH: QVQLQDSGGGLVQAGGSLRLSCGVSGLSFSGYTMGWFRQAPGKEREFAAAIGWNSGTTEYRNSVKGRFTISRDNAKNTVYLQMNSLKPEDTAVYYCAASPKYMTAYERSYDFWGQGTQVTVSS
# B6: VHH#m3F (VHH)
# VHH: QVQLQDSGGGLVQAGGSLRLSCAASGGTFSSIIMAWFRQAPGKEREFVGAVSWSGGTTVYADSVLGRFEISRDSARKSVYLQMNSLKPEDTAVYYCAARPYQKYNWASASYNVWGQGTQVTVSS
# B7: VHH#m9E (VHH)
# VHH: EVQLVESGGGLVQAGGSLRLSCAASGGTLSSYITGWFRQAPGKEREFVGAVSWSSSTIVYADSVEGRFTISRDNHQNTVYLQMDSLKPEDTAVYYCAARPYQKYNWASASYNVWGQGTQVTVSS
# B8: VHH#12B (VHH)
# VHH: QVQLQESGGGLVQPGGSLRLSCAASGFEFENHWMYWVRQAPGKGLEWVSTVNTNGLITRYADSVKGRFTISRDNAKYTLYLQMNSLKSEDTAVYYCTKVLPPYSDDSRTNADWGQGTQVTVSS
# B9: VHH#12B Q1E + Q5L + A74S + Y76N + K83R + P84A (VHH)
# VHH: B8 VHH with Q1E, Q5L, A75S, Y77N, K87R, S88A
# notes: Made by site-directed mutagenesis and purified on TALON; The tags are not described for the mutant; also called mutant Q1E+Q5L+A74S+Y76N+K83R+P84A; mutant 1E+Q5LA74S+Y76N+K83R+P84A
# How the values were obtained:
# [1] = target: T2, human Tumor Necrosis Factor alpha (human, UniProt P01375 77-233); assay: cell-based or functional assay
# [2] = target: T1, mouse TNF-alpha; assay: cell-based or functional assay
# [3] = target: T2, human Tumor Necrosis Factor alpha; assay: in vitro receptor binding assay: biotinylated human TNF-alpha pre-incubated with VHH, binding to coated Enbrel
# T2 sequence (P01375 77-233 limits assumed): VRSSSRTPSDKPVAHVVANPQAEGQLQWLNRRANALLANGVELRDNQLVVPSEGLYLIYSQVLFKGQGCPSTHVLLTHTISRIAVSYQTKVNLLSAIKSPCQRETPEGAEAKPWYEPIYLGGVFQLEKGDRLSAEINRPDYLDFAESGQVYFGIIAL
binder,measurement,setting,value
B1,"IC50, cell based assay using KYM cells (TNF-alpha 1.29 ng/ml)",[1],20000 nM
B2,"IC50, cell based assay using KYM cells (TNF-alpha 1.29 ng/ml)",[1],0.03 nM
same,"fold lower IC50 than the monomer VHH#3E, cell based assay using KYM cells",[1],400 fold
B3,"IC50, MTT cytotoxicity assay with L929 cells (mouse TNF-alpha 65 pg/ml)",[2],2000 nM
same,"fold change of IC50 against monovalent 3F, MTT cytotoxicity assay with L929 cells",[2],1000 fold
B4,"IC50, cell based assay using KYM cells (TNF-alpha 1.29 ng/ml)",[1],6000 nM
B5,"relative potency, MTT cytotoxicity assay with the murine cell line L929",[2],10 fold
B6,"IC50, MTT cytotoxicity assay with L929 cells (mouse TNF-alpha 65 pg/ml)",[2],2 nM
same,"relative potency, MTT cytotoxicity assay with the murine cell line L929",[2],10 fold
B7,"IC50, MTT cytotoxicity assay with L929 cells (mouse TNF-alpha 65 pg/ml)",[2],25 nM
B8,IC50,[3],66 nM
B9,IC50,[3],200 nM
same,fold increase of IC50 against wild type VHH#12B,[3],3 fold
